Laboratory results as given in PMC2188260.
Read-outs that look alike come from different tables or passages of the source.

Legend:
Test in all cases: co-IP
[1] = target: gelsolin of rabbit lung macrophages (rabbit (endogenous in lung macrophages))
[2] = target: gelsolin of rabbit lung macrophages (rabbit (endogenous in lung macrophages)); remark: listed apart in the source
[3] = target: gelsolin of rabbit lung macrophages (rabbit (endogenous in lung macrophages)); remark: listed apart in the source
[4] = target: human plasma gelsolin (human) (UniProt P06396)
Chain of human plasma gelsolin (human) (P06396 28-782): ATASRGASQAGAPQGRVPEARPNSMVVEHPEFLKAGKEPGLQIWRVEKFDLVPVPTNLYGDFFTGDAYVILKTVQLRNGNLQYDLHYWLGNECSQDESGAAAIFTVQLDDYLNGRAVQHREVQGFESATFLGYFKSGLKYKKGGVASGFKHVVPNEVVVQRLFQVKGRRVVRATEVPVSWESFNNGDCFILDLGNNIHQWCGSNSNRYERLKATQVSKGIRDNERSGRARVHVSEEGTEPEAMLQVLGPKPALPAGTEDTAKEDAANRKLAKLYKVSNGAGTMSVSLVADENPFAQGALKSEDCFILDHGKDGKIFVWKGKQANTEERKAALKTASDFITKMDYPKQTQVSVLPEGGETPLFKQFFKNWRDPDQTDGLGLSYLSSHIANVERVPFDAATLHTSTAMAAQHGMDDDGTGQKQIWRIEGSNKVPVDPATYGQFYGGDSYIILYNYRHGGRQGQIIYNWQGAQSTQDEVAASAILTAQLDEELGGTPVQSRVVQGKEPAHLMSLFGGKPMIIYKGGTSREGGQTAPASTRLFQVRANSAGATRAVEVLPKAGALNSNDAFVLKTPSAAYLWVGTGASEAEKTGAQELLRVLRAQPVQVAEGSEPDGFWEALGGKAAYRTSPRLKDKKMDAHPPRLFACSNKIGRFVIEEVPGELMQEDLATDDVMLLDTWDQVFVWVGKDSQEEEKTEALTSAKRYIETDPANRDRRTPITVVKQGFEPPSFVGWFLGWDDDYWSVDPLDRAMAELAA

Substance: actin of rabbit lung macrophages (from UniProt P29751 1-375) (natural protein)
- molar ratio of actin to gelsolin on the beads (actin per gelsolin) [1]: 4
- molar ratio of actin to gelsolin on the beads (actin per gelsolin) [2]: 1
- percent of gelsolin complexed with actin [2]: 100%
- molar ratio of actin to gelsolin on the beads (actin per gelsolin) [3]: 0.5
- percent of gelsolin complexed with actin [3]: 50%
- percent of gelsolin in the EGTA-resistant complex (cells in suspension, 0 min) [3]: 20%
- percent of gelsolin in the EGTA-resistant complex (cells in suspension, 30 min) [3]: 90%
- percent of total gelsolin complexed to actin (1 uM ionomycin, 30 s) [3]: 80%
- percent of total gelsolin complexed to actin (before ionomycin) [3]: 50%
- percentage of gelsolin in an EGTA-resistant complex (DMSO, experiment 1) [3]: 32%
- percentage of gelsolin in an EGTA-resistant complex (DMSO, experiment 2) [3]: 34%
- percentage of gelsolin in an EGTA-resistant complex (DMSO, experiment 3) [3]: 51%
- percentage of gelsolin in an EGTA-resistant complex (DMSO, experiment 4) [3]: 35%
- percentage of gelsolin in an EGTA-resistant complex (DMSO, mean value) [3]: 38%
- percentage of gelsolin in an EGTA-resistant complex (FMLP, experiment 1) [3]: 23%
- percentage of gelsolin in an EGTA-resistant complex (FMLP, experiment 2) [3]: 24%
- percentage of gelsolin in an EGTA-resistant complex (FMLP, experiment 3) [3]: 25%
- percentage of gelsolin in an EGTA-resistant complex (FMLP, experiment 4) [3]: 26%
- percentage of gelsolin in an EGTA-resistant complex (FMLP, mean value) [3]: 25%
- percentage of gelsolin in an EGTA-resistant complex (no addition, experiment 1) [3]: 43%
- percentage of gelsolin in an EGTA-resistant complex (no addition, experiment 2) [3]: 40%
- percentage of gelsolin in an EGTA-resistant complex (no addition, experiment 3) [3]: 51%
- percentage of gelsolin in an EGTA-resistant complex (no addition, experiment 4) [3]: 47%
- percentage of gelsolin in an EGTA-resistant complex (no addition, mean value) [3]: 45%

Substance: rabbit skeletal muscle actin (from UniProt P68135 1-377) (natural protein)
- stoichiometry N (actin per gelsolin) [4]: 1
